Two substances from paper doi:10.1101/2023.01.18.524603 can be followed below.

Common to all, as to assay: EMSA
Settings in all cases: EMSA: 25 mM Tris-HCl pH 7.4, 100 mM NaCl, 5 ng DNA in 10 ul, 20 min, room temperature, AFM: 25 mM HEPES-NaOH pH 7.4, 5 mM MgCl2, 50 mM NaCl, 10% glycerol

Data set [1] deals with Rec114C (Saccharomyces cerevisiae).
The target of data set [2] is T1, Rec114C-Mei4N (RM-TDB) (Saccharomyces cerevisiae) (UniProt P32841+P29467).
T1 sequence 1: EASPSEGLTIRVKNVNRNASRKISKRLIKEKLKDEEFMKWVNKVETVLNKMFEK
T1 sequence 2: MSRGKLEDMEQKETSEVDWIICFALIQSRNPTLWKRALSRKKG

In data set [3] the test system is Rec114(325-428)-Mei4(1-90) (Saccharomyces cerevisiae).
Data set [4] concerns Rec114(386-428)-Mei4N (Saccharomyces cerevisiae).
Data set [5] relates to Rec114(388-428) K399A/R400A-Mei4N (Saccharomyces cerevisiae).
Data set [6] has as its system Rec114(388-428) K403A/K407A-Mei4N (Saccharomyces cerevisiae).
Data set [7] has as its system Rec114(388-428) K417A/K424A-Mei4N (Saccharomyces cerevisiae).
Data set [8] deals with Rec114(388-428) R395A/K396A-Mei4N (Saccharomyces cerevisiae).
The test system of data set [9] is Rec114(388-428)-Mei4(13-43) (Saccharomyces cerevisiae).
In data set [10] the test system is Rec114(388-428)-Mei4N (Saccharomyces cerevisiae).
Data set [11] relates to Rec114C-Mei4N-ybbR (Saccharomyces cerevisiae).
The subject of data set [12] is Rec114C-Mei4N-ybbR-LD650 (Saccharomyces cerevisiae).

As for 1000-bp linear DNA, the K half in [1] came to 300 nM; in data set [2], 80 nM.
Take 150-bp linear DNA: the K half was 90 nM in data set [3]; 110 nM in data set [4]; 2000 nM in [5]; 1000 nM in data set [6]; 900 nM in data set [7]; 1000 nM in [8]. Further, the K half amounted to 100 nM in data set [9]; 110 nM in data set [10]; 90 nM in data set [2]; 90 nM in data set [11]; 90 nM in data set [12].
